The target in assay [1] is SCM expressed on the surface of S. canis G361 (Streptococcus canis (endogenous in strain G361)). As to the kind of experiment: radioligand binding.
The target of assay [2] is human plasminogen (human). As to the kind of experiment: radioligand binding.
For assay [3], the target named is SCM expressed on the surface of S. canis G361 (Streptococcus canis (endogenous in strain G361)). As to the kind of experiment: radioligand binding. This is another data set of the same source.
Assay [4] deals with human plasminogen (human). As to the kind of experiment: SPR.

Where two headings read alike, the source gives them in different places.

For “purified recombinant SCM, M-like protein of S. canis (derived from strain G361) (natural protein)”, in assay [1], the percent binding of 125I-SCM to G361 (1 × 10^7 bacteria) came to 13.1%, the percent binding of 125I-SCM to G361 (2 × 10^7 bacteria) is 19.3%, the percent binding of 125I-SCM to G361 (4 × 10^6 bacteria) was 6.5% and the percent binding of 125I-SCM to G361 (control without inhibitor) amounted to 28.7%. In addition, in assay [1], the percent binding of 125I-SCM to G361 bacteria came to 23.5%, the percent binding of 125I-SCM to G361 left with 1.0 µM nonlabeled SCM is 15.8%, the percent binding of 125I-SCM to G361 left with 10.0 µg nonlabeled SCM was 4.2% and the percent specific binding of 125I-SCM to G361 bacteria is 20.5%. In assay [2], this substance had a percent binding of 125I-plasminogen to G361 left with 1.0 µM nonlabeled SCM of 41.3%. Further, the percent binding of 125I-SCM to G361 bacteria in assay [3] worked out at 25.7%.
In assay [4], “recombinant S. canis enolase (strain G361) (from UniProt A0A2D4DNT6 1-435) (enzyme)” returned an equilibrium dissociation constant (Kd) of 800 nM.
